T1: GLP-1R (INS1e assay) (UniProt P32301 22-463, limits assumed)
T1 sequence (looked up): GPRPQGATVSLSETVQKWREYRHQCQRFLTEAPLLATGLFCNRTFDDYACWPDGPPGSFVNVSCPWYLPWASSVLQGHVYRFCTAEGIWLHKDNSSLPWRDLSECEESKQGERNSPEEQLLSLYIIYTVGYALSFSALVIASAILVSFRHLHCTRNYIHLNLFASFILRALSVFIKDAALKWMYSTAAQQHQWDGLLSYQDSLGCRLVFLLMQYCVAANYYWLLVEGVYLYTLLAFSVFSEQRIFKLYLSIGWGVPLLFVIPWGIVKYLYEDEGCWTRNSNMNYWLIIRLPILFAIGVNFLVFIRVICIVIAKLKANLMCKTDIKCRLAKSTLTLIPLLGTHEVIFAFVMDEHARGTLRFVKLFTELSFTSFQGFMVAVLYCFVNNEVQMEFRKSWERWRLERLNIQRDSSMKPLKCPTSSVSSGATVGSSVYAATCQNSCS

B1: SEQ ID NO 84 (peptide)
peptide: H[Aib]EGS[αMeF]TSDV[αMeS]S[αMeF]LEK([γGlu-Palmitoyl])EAA[αMeK]E[αMeF]IA[αMeF]VV[αMeK]GG-NH2
modifications: N-terminus assumed
SMILES: CCCCCCCCCCCCCCCC(=O)N[C@@H](CCC(=O)NCCCC[C@H](NC(=O)[C@H](CCC(=O)O)NC(=O)[C@H](CC(C)C)NC(=O)[C@](C)(Cc1ccccc1)NC(=O)[C@H](CO)NC(=O)[C@](C)(CO)NC(=O)[C@@H](NC(=O)[C@H](CC(=O)O)NC(=O)[C@H](CO)NC(=O)[C@@H](NC(=O)[C@](C)(Cc1ccccc1)NC(=O)[C@H](CO)NC(=O)CNC(=O)[C@H](CCC(=O)O)NC(=O)C(C)(C)NC(=O)[C@@H](N)Cc1c[nH]cn1)[C@@H](C)O)C(C)C)C(=O)N[C@@H](CCC(=O)O)C(=O)N[C@@H](C)C(=O)N[C@@H](C)C(=O)N[C@@](C)(CCCCN)C(=O)N[C@@H](CCC(=O)O)C(=O)N[C@@](C)(Cc1ccccc1)C(=O)N[C@H](C(=O)N[C@@H](C)C(=O)N[C@@](C)(Cc1ccccc1)C(=O)N[C@H](C(=O)N[C@H](C(=O)N[C@@](C)(CCCCN)C(=O)NCC(=O)NCC(N)=O)C(C)C)C(C)C)[C@@H](C)CC)C(=O)O
B2: SEQ ID NO 79 (peptide)
peptide: H[Aib]EGS[αMeF]TSDV[αMeS]S[αMeF]LEGEAA[αMeK]K([γGlu-Palmitoyl])[αMeF]IA[αMeF]VV[αMeK]GG-NH2
modifications: N-terminus assumed
SMILES: CCCCCCCCCCCCCCCC(=O)N[C@@H](CCC(=O)NCCCC[C@H](NC(=O)[C@](C)(CCCCN)NC(=O)[C@H](C)NC(=O)[C@H](C)NC(=O)[C@H](CCC(=O)O)NC(=O)CNC(=O)[C@H](CCC(=O)O)NC(=O)[C@H](CC(C)C)NC(=O)[C@](C)(Cc1ccccc1)NC(=O)[C@H](CO)NC(=O)[C@](C)(CO)NC(=O)[C@@H](NC(=O)[C@H](CC(=O)O)NC(=O)[C@H](CO)NC(=O)[C@@H](NC(=O)[C@](C)(Cc1ccccc1)NC(=O)[C@H](CO)NC(=O)CNC(=O)[C@H](CCC(=O)O)NC(=O)C(C)(C)NC(=O)[C@@H](N)Cc1c[nH]cn1)[C@@H](C)O)C(C)C)C(=O)N[C@@](C)(Cc1ccccc1)C(=O)N[C@H](C(=O)N[C@@H](C)C(=O)N[C@@](C)(Cc1ccccc1)C(=O)N[C@H](C(=O)N[C@H](C(=O)N[C@@](C)(CCCCN)C(=O)NCC(=O)NCC(N)=O)C(C)C)C(C)C)[C@@H](C)CC)C(=O)O
B3: SEQ ID NO 76 (peptide)
peptide: H[Aib]EGS[αMeF]TSDV[αMeS]S[αMeF]LEGEAA[αMeK]E[αMeF]IK([γGlu-Palmitoyl])[αMeF]VV[αMeK]GG-NH2
modifications: N-terminus assumed
SMILES: CCCCCCCCCCCCCCCC(=O)N[C@@H](CCC(=O)NCCCC[C@H](NC(=O)[C@@H](NC(=O)[C@](C)(Cc1ccccc1)NC(=O)[C@H](CCC(=O)O)NC(=O)[C@](C)(CCCCN)NC(=O)[C@H](C)NC(=O)[C@H](C)NC(=O)[C@H](CCC(=O)O)NC(=O)CNC(=O)[C@H](CCC(=O)O)NC(=O)[C@H](CC(C)C)NC(=O)[C@](C)(Cc1ccccc1)NC(=O)[C@H](CO)NC(=O)[C@](C)(CO)NC(=O)[C@@H](NC(=O)[C@H](CC(=O)O)NC(=O)[C@H](CO)NC(=O)[C@@H](NC(=O)[C@](C)(Cc1ccccc1)NC(=O)[C@H](CO)NC(=O)CNC(=O)[C@H](CCC(=O)O)NC(=O)C(C)(C)NC(=O)[C@@H](N)Cc1c[nH]cn1)[C@@H](C)O)C(C)C)[C@@H](C)CC)C(=O)N[C@@](C)(Cc1ccccc1)C(=O)N[C@H](C(=O)N[C@H](C(=O)N[C@@](C)(CCCCN)C(=O)NCC(=O)NCC(N)=O)C(C)C)C(C)C)C(=O)O
B4: SEQ ID NO 80 (peptide)
peptide: H[Aib]EGS[αMeF]TSDV[αMeS]S[αMeF]LEGEAAK([γGlu-Palmitoyl])E[αMeF]IA[αMeF]VV[αMeK]GG-NH2
modifications: N-terminus assumed
SMILES: CCCCCCCCCCCCCCCC(=O)N[C@@H](CCC(=O)NCCCC[C@H](NC(=O)[C@H](C)NC(=O)[C@H](C)NC(=O)[C@H](CCC(=O)O)NC(=O)CNC(=O)[C@H](CCC(=O)O)NC(=O)[C@H](CC(C)C)NC(=O)[C@](C)(Cc1ccccc1)NC(=O)[C@H](CO)NC(=O)[C@](C)(CO)NC(=O)[C@@H](NC(=O)[C@H](CC(=O)O)NC(=O)[C@H](CO)NC(=O)[C@@H](NC(=O)[C@](C)(Cc1ccccc1)NC(=O)[C@H](CO)NC(=O)CNC(=O)[C@H](CCC(=O)O)NC(=O)C(C)(C)NC(=O)[C@@H](N)Cc1c[nH]cn1)[C@@H](C)O)C(C)C)C(=O)N[C@@H](CCC(=O)O)C(=O)N[C@@](C)(Cc1ccccc1)C(=O)N[C@H](C(=O)N[C@@H](C)C(=O)N[C@@](C)(Cc1ccccc1)C(=O)N[C@H](C(=O)N[C@H](C(=O)N[C@@](C)(CCCCN)C(=O)NCC(=O)NCC(N)=O)C(C)C)C(C)C)[C@@H](C)CC)C(=O)O
B5: SEQ ID NO 82 (peptide)
peptide: H[Aib]EGS[αMeF]TSDV[αMeS]S[αMeF]LEGEK([γGlu-Palmitoyl])A[αMeK]E[αMeF]IA[αMeF]VV[αMeK]GG-NH2
modifications: N-terminus assumed
SMILES: CCCCCCCCCCCCCCCC(=O)N[C@@H](CCC(=O)NCCCC[C@H](NC(=O)[C@H](CCC(=O)O)NC(=O)CNC(=O)[C@H](CCC(=O)O)NC(=O)[C@H](CC(C)C)NC(=O)[C@](C)(Cc1ccccc1)NC(=O)[C@H](CO)NC(=O)[C@](C)(CO)NC(=O)[C@@H](NC(=O)[C@H](CC(=O)O)NC(=O)[C@H](CO)NC(=O)[C@@H](NC(=O)[C@](C)(Cc1ccccc1)NC(=O)[C@H](CO)NC(=O)CNC(=O)[C@H](CCC(=O)O)NC(=O)C(C)(C)NC(=O)[C@@H](N)Cc1c[nH]cn1)[C@@H](C)O)C(C)C)C(=O)N[C@@H](C)C(=O)N[C@@](C)(CCCCN)C(=O)N[C@@H](CCC(=O)O)C(=O)N[C@@](C)(Cc1ccccc1)C(=O)N[C@H](C(=O)N[C@@H](C)C(=O)N[C@@](C)(Cc1ccccc1)C(=O)N[C@H](C(=O)N[C@H](C(=O)N[C@@](C)(CCCCN)C(=O)NCC(=O)NCC(N)=O)C(C)C)C(C)C)[C@@H](C)CC)C(=O)O
B6: SEQ ID NO 78 (peptide)
peptide: H[Aib]EGS[αMeF]TSDV[αMeS]S[αMeF]LEGEAA[αMeK]EK([γGlu-Palmitoyl])IA[αMeF]VV[αMeK]GG-NH2
modifications: N-terminus assumed
SMILES: CCCCCCCCCCCCCCCC(=O)N[C@@H](CCC(=O)NCCCC[C@H](NC(=O)[C@H](CCC(=O)O)NC(=O)[C@](C)(CCCCN)NC(=O)[C@H](C)NC(=O)[C@H](C)NC(=O)[C@H](CCC(=O)O)NC(=O)CNC(=O)[C@H](CCC(=O)O)NC(=O)[C@H](CC(C)C)NC(=O)[C@](C)(Cc1ccccc1)NC(=O)[C@H](CO)NC(=O)[C@](C)(CO)NC(=O)[C@@H](NC(=O)[C@H](CC(=O)O)NC(=O)[C@H](CO)NC(=O)[C@@H](NC(=O)[C@](C)(Cc1ccccc1)NC(=O)[C@H](CO)NC(=O)CNC(=O)[C@H](CCC(=O)O)NC(=O)C(C)(C)NC(=O)[C@@H](N)Cc1c[nH]cn1)[C@@H](C)O)C(C)C)C(=O)N[C@H](C(=O)N[C@@H](C)C(=O)N[C@@](C)(Cc1ccccc1)C(=O)N[C@H](C(=O)N[C@H](C(=O)N[C@@](C)(CCCCN)C(=O)NCC(=O)NCC(N)=O)C(C)C)C(C)C)[C@@H](C)CC)C(=O)O
B7: SEQ ID NO 83 (peptide)
peptide: H[Aib]EGS[αMeF]TSDV[αMeS]S[αMeF]LEGK([γGlu-Palmitoyl])AA[αMeK]E[αMeF]IA[αMeF]VV[αMeK]GG-NH2
modifications: N-terminus assumed
SMILES: CCCCCCCCCCCCCCCC(=O)N[C@@H](CCC(=O)NCCCC[C@H](NC(=O)CNC(=O)[C@H](CCC(=O)O)NC(=O)[C@H](CC(C)C)NC(=O)[C@](C)(Cc1ccccc1)NC(=O)[C@H](CO)NC(=O)[C@](C)(CO)NC(=O)[C@@H](NC(=O)[C@H](CC(=O)O)NC(=O)[C@H](CO)NC(=O)[C@@H](NC(=O)[C@](C)(Cc1ccccc1)NC(=O)[C@H](CO)NC(=O)CNC(=O)[C@H](CCC(=O)O)NC(=O)C(C)(C)NC(=O)[C@@H](N)Cc1c[nH]cn1)[C@@H](C)O)C(C)C)C(=O)N[C@@H](C)C(=O)N[C@@H](C)C(=O)N[C@@](C)(CCCCN)C(=O)N[C@@H](CCC(=O)O)C(=O)N[C@@](C)(Cc1ccccc1)C(=O)N[C@H](C(=O)N[C@@H](C)C(=O)N[C@@](C)(Cc1ccccc1)C(=O)N[C@H](C(=O)N[C@H](C(=O)N[C@@](C)(CCCCN)C(=O)NCC(=O)NCC(N)=O)C(C)C)C(C)C)[C@@H](C)CC)C(=O)O

Starred links: 1 amine or outer side, 2 acyl side, 3 side chain; linkers in the order of their positions; H or OH if unused. Non-standard residues stand in square brackets, D forms with d. Groups on a side chain read outwards from the residue. No end group written: not given here. *: point of attachment. γGlu = O=C(O)[C@H](CCC(=O)[*:2])N[*:1]; Palmitoyl = CCCCCCCCCCCCCCCC(=O)*; αMeF = C[C@](N)(Cc1ccccc1)C(=O)O; αMeK = C[C@](N)(CCCCN)C(=O)O; αMeS = C[C@](N)(CO)C(=O)O; Aib = CC(C)(N)C(=O)O

The target in the test is T1, GLP-1R (INS1e assay). As to the kind of experiment: cell-based or functional assay.
Take B1: the “INS1e assay EC50 GLP-1 R n1” value was determined as 0.455 nM, the “INS1e assay EC50 GLP-1 R n2” value amounted to 0.665 nM and the “INS1e assay EC50 Mean pM GLP-1R” value came out at 560 pM.
The like results for B2 were, in that order, 0.289 nM, 0.527 nM and 408 pM.
On the same counts, the results for B3 are 0.326 nM, 0.531 nM and 429 pM.
On the same counts, the results for B4 are 3.89 nM, 1.33 nM and 2610 pM.
Consider B5, for which the “INS1e assay EC50 GLP-1 R n1” value turned out to be 0.151 nM, the “INS1e assay EC50 GLP-1 R n2” value came out at 0.238 nM and the “INS1e assay EC50 Mean pM GLP-1R” value turned out to be 195 pM.
For B6, the “INS1e assay EC50 GLP-1 R n1” value is 0.345 nM, the “INS1e assay EC50 GLP-1 R n2” value was determined as 0.346 nM and the “INS1e assay EC50 Mean pM GLP-1R” value turned out to be 346 pM.
On the same counts, the results for B7 are 0.137 nM, 0.25 nM and 194 pM.
